Results on 47 molecules are retold here after patent US20260055205A1 (published 2026).

Positions count from the first letter of the chain named. Names may count otherwise.

B1: PSMA.334 (bispecific antibody, V domains shown)
VH: QVQLVESGGGVVQPGRSLRLSCAASGRTFGIYVMGWFRQAPGKEREFVGAISWSGSNRKVSDSVKGRFTISRDNSKNTLYLQMNSLRAEDTAVYFCAASNKDYGRTWYDFNESDYWGQGTQVTVSS
notes: TCE with CD3.23; also called AC3736
B2: PSMA.360 (bispecific antibody, V domains shown)
VH: B1 VH with M34W, I51M, Y94N, F95Y, A98G, D102L
notes: TCE with CD3.23; also called AC3762
B3: PSMA.337 (bispecific antibody, V domains shown)
VH: B1 VH with Y94A, A98G, D102L
notes: TCE with CD3.23; also called AC3739
B4: PSMA.339 (bispecific antibody, V domains shown)
VH: B1 VH with Y94N, A98G, D102L
notes: TCE with CD3.23; also called AC3741
B5: PSMA.338 (bispecific antibody, V domains shown)
VH: B1 VH with Y94R, A98G, D102L
notes: TCE with CD3.23; also called AC3740
B6: PSMA.356 (bispecific antibody, V domains shown)
VH: B1 VH with M34W, I51M, D102E
notes: TCE with CD3.23; also called AC3758
B7: PSMA.340 (bispecific antibody, V domains shown)
VH: B1 VH with Y94G, A98G, D102L
notes: TCE with CD3.23; also called AC3742
B8: PSMA.350 (bispecific antibody, V domains shown)
VH: B1 VH with M34W, I51M, F95Y, D102E
notes: TCE with CD3.23; also called AC3752
B9: PSMA.343 (bispecific antibody, V domains shown)
VH: B1 VH with Y94T, A98G, D102L
notes: TCE with CD3.23; also called AC3745
B10: PSMA.355 (bispecific antibody, V domains shown)
VH: B1 VH with M34W, I51M
notes: TCE with CD3.23; also called AC3757
B11: PSMA.346 (bispecific antibody, V domains shown)
VH: B1 VH with M34W, I51M, Y94D, F95Y, D102L
notes: TCE with CD3.23; also called AC3748
B12: PSMA.358 (bispecific antibody, V domains shown)
VH: B1 VH with M34W, I51M, A97G, A98G, D102L
notes: TCE with CD3.23; also called AC3760
B13: PSMA.347 (bispecific antibody, V domains shown)
VH: B1 VH with M34W, I51M, F95Y, A97G, D102L
notes: TCE with CD3.23; also called AC3749
B14: PSMA.336 (bispecific antibody, V domains shown)
VH: B1 VH with D102G
notes: TCE with CD3.23; also called AC3738
B15: PSMA.353 (bispecific antibody, V domains shown)
VH: B1 VH with M34W, I51M, A97G, D102L
notes: TCE with CD3.23; also called AC3755
B16: PSMA.352 (bispecific antibody, V domains shown)
VH: B1 VH with M34W, I51M, Y94D, D102L
notes: TCE with CD3.23; also called AC3754
B17: PSMA.351 (bispecific antibody, V domains shown)
VH: B1 VH with M34W, I51M, F95Y, D102G
notes: TCE with CD3.23; also called AC3753
B18: PSMA.359 (bispecific antibody, V domains shown)
VH: B1 VH with M34W, I51M, Y94R, F95Y, A98G, D102L
notes: TCE with CD3.23; also called AC3761
B19: PSMA.357 (bispecific antibody, V domains shown)
VH: B1 VH with M34W, I51M, D102G
notes: TCE with CD3.23; also called AC3759
B20: PSMA.341 (bispecific antibody, V domains shown)
VH: B1 VH with Y94K, A98G, D102L
notes: TCE with CD3.23; also called AC3743
B21: PSMA.335 (bispecific antibody, V domains shown)
VH: B1 VH with D102E
notes: TCE with CD3.23; also called AC3737
B22: PSMA.345 (bispecific antibody, V domains shown)
VH: B1 VH with M34W, I51M, F95Y, A97G, A98G, D102L
notes: TCE with CD3.23; also called AC3747
B23: PSMA.342 (bispecific antibody, V domains shown)
VH: B1 VH with Y94S, A98G, D102L
notes: TCE with CD3.23; also called AC3744
B24: PSMA.349 (bispecific antibody, V domains shown)
VH: B1 VH with M34W, I51M, F95Y
notes: TCE with CD3.23; also called AC3751
B25: CD3.23-D (bispecific antibody, V domains shown)
VH: EVQLLESGGGIVQPGGSLKLSCAASGFTFNTYAMNWVRQAPGKGLEWVARIRSKYNNYATYYADSVKDRFTISRDDSKNTVYLQMNNLKTEDTAVYYCVRHENFGNSYVSWFAHWGQGTLVTVSS
VL: ELVVTQEPSLTVSPGGTVTLTCRSSNGAVTSSNYANWVQQKPGQAPRGLIGGTNKRAPGTPARFSGSLLGGKAALTLSGVQPEDEAVYYCALWYPNLWVFGGGTKLTVL
notes: paTCE with PSMA.5; also called AC3366; WT
B26: CD3.77 (bispecific antibody, V domains shown)
VH: B25 VH with N56E
VL: B25 VL
notes: paTCE with PSMA.5; also called AC3406; N53E
B27: CD3.39 (bispecific antibody, V domains shown)
VH: B25 VH with W47E
VL: B25 VL
notes: paTCE with PSMA.5; also called AC3368; W47E
B28: CD3.60 (bispecific antibody, V domains shown)
VH: B25 VH with R52Q
VL: B25 VL
notes: paTCE with PSMA.5; also called AC3389; R52Q
B29: CD3.41 (bispecific antibody, V domains shown)
VH: B25 VH with V48E
VL: B25 VL
notes: paTCE with PSMA.5; also called AC3370; V48E
B30: CD3.74 (bispecific antibody, V domains shown)
VH: B25 VH with Y55T
VL: B25 VL
notes: paTCE with PSMA.5; also called AC3403; Y52cT
B31: CD3.71 (bispecific antibody, V domains shown)
VH: B25 VH with Y55G
VL: B25 VL
notes: paTCE with PSMA.5; also called AC3400; Y52cG
B32: CD3.75 (bispecific antibody, V domains shown)
VH: B25 VH with Y55W
VL: B25 VL
notes: paTCE with PSMA.5; also called AC3404; Y52cW
B33: CD3.73 (bispecific antibody, V domains shown)
VH: B25 VH with Y55P
VL: B25 VL
notes: paTCE with PSMA.5; also called AC3402; Y52cP
B34: CD3.56 (bispecific antibody, V domains shown)
VH: B25 VH with I51T
VL: B25 VL
notes: paTCE with PSMA.5; also called AC3385; I51T
B35: CD3.54 (bispecific antibody, V domains shown)
VH: B25 VH with I51A
VL: B25 VL
notes: paTCE with PSMA.5; also called AC3383; I51A
B36: CD3.40 (bispecific antibody, V domains shown)
VH: B25 VH with V48A
VL: B25 VL
notes: paTCE with PSMA.5; also called AC3369; V48A
B37: CD3.42 (bispecific antibody, V domains shown)
VH: B25 VH with V48G
VL: B25 VL
notes: paTCE with PSMA.5; also called AC3371; V48G
B38: CD3.72 (bispecific antibody, V domains shown)
VH: B25 VH with Y55K
VL: B25 VL
notes: paTCE with PSMA.5; also called AC3401; Y52cK
B39: CD3.70 (bispecific antibody, V domains shown)
VH: B25 VH with Y55R
VL: B25 VL
notes: paTCE with PSMA.5; also called AC3399; Y52cR
B40: CD3.68 (bispecific antibody, V domains shown)
VH: B25 VH with K54P
VL: B25 VL
notes: paTCE with PSMA.5; also called AC3397; K52bP
B41: CD3.44 (bispecific antibody, V domains shown)
VH: B25 VH with V48T
VL: B25 VL
notes: paTCE with PSMA.5; also called AC3373; V48T
B42: CD3.69 (bispecific antibody, V domains shown)
VH: B25 VH with Y55A
VL: B25 VL
notes: paTCE with PSMA.5; also called AC3398; Y52cA
B43: CD3.45 (bispecific antibody, V domains shown)
VH: B25 VH with V48W
VL: B25 VL
notes: paTCE with PSMA.5; also called AC3374; V48W
B44: CD3.67 (bispecific antibody, V domains shown)
VH: B25 VH with S53T
VL: B25 VL
notes: paTCE with PSMA.5; also called AC3396; S52aT
B45: CD3.43 (bispecific antibody, V domains shown)
VH: B25 VH with V48S
VL: B25 VL
notes: paTCE with PSMA.5; also called AC3372; V48S
B46: CD3.38 (bispecific antibody, V domains shown)
VH: B25 VH with W47D
VL: B25 VL
notes: paTCE with PSMA.5; also called AC3367; W47D
B47: CD3.48 (bispecific antibody, V domains shown)
VH: B25 VH with A49G
VL: B25 VL
notes: paTCE with PSMA.5; also called AC3377; A49G

T2 sequence (P07766 23-126 limits assumed): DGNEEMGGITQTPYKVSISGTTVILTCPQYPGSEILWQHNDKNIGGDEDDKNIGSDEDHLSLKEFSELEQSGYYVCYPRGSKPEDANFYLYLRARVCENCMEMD

One assay deals with T1, human PSMA (human, UniProt Q04609 44-750, limits assumed).
T1 construct: also called huPSMA; hPSMA
T1 sequence (Q04609 44-750 limits assumed): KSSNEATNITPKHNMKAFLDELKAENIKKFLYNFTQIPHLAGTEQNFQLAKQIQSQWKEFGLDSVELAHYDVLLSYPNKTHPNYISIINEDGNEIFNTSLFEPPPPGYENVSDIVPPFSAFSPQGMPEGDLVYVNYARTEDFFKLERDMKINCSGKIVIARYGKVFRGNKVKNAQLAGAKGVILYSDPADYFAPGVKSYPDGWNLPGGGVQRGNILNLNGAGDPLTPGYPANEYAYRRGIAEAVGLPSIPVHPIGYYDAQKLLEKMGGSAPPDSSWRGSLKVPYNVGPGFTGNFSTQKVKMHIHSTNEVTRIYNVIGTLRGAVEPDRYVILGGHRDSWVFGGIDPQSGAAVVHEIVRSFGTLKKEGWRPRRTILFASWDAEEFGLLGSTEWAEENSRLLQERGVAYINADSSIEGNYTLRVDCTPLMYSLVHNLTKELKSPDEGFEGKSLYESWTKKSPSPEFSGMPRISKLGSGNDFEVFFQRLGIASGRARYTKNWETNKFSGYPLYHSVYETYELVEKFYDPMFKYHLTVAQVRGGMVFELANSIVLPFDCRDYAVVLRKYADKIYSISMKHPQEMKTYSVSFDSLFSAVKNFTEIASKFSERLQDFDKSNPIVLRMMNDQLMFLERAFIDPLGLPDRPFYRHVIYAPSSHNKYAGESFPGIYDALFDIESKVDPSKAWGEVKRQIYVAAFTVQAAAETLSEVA
Briefly: binding screen.
Turning to B1, the Kd was determined as 70.6 nM.
On to B2, for which the binding result is “no binding”.
With B3, the binding result is “no binding”.
Still for that read-out and setting: next, B4: “no binding”; B5: “no binding”.
B6 gave a Kd of 7.8 nM.
B7: the binding result is “no binding”.
B8 registered a Kd of 7.4 nM.
Consider B9, for which the binding result is on record as “no binding”.
In the case of B10, the Kd was 17.8 nM.
Turning to B11, the binding result is “no binding”.
In the case of B12, the affinity, expressed as Kd, was 6.5 nM.
The same measure, in the same setting: next, B13: 7.3 nM; B14: 129 nM.
Still for that read-out and setting: to B15 belongs 5.1 nM.
For the molecule B16, the binding result is recorded as “no binding”.
In the case of B17, binding was put at a Kd of 32.6 nM.
Consider B18, for which the binding result is “no binding”.
For B19, binding was put at a Kd of 24.6 nM.
For B20, the binding result is “no binding”.
For the molecule B21, the Kd was 24.8 nM.
Still for that read-out and setting: to B22 belongs 6.1 nM.
As for B23, the binding result is on record as “no binding”.
The molecule B24 showed a Kd of 18 nM.

The next assay concerns the target T2, human CD3 epsilon (human, UniProt P07766 23-126, limits assumed).
T2 construct: also called huCD3e
Briefly: Octet, crude lysate. From the text:
To achieve this, Pool 1 was created, which included 74 paTCE molecules, each containing PSMA.5 and one of the 74 CD3.23 mutation variants. Single mutations were chosen based on analyses including CD3.23 PTE score analysis (using internal PTE algorithm v12) and structural analysis. Structural considerations included: possible contact disruption, anticipated steric clashes, side chain charge maintenance and possible pockets filling. Stability and affinity of the individually expressed molecules in the form of crude lysate was evaluated by Octet (ForteBio).
On the technique in general: BLI is a label-free optical method that tracks binding on a fibre tip over time.
B25 displayed a Kd of 14 nM.
On the same count and under the same terms, next, B26: 575 nM.
The same measure, in the same setting: next, B27: 18.1 nM.
Still for that read-out and setting: next, B28: 434 nM; B29: 165 nM.
In the case of B30, the affinity, expressed as Kd, was 11.1 nM.
The same measure, in the same setting: next, B31: 20.1 nM.
Molecule B32 gave a Kd of 10.5 nM.
Still for that read-out and setting: next, B33: 33.1 nM.
Still for that read-out and setting: next, B34: 425 nM; B35: 1180 nM.
The same measure, in the same setting: to B36 belongs 8.3 nM.
Take B37: the Kd was 71.5 nM.
Same read-out and setting: to B38 belongs 5.1 nM; to B39, 3.8 nM; to B40, 51 nM.
On the same count and under the same terms, to B41 belongs 5.7 nM.
On the same count and under the same terms, next, B42: 11.5 nM.
B43 registered a Kd of 34300 nM.
The same measure, in the same setting: next, B44: 4.8 nM.
Still for that read-out and setting: next, B45: 11.2 nM; B46: 40.2 nM; B47: 4.5 nM.

In general, Kd refers to the free concentration of one partner at which half of the binding sites on the other are occupied at equilibrium, for simple one-to-one binding. A low value points to a tighter complex.
